The record followed here is paper PMC4177983.

The target of this experiment is SF162 soluble Env gp140 trimer (HIV-1 isolate SF162 (clade B)). Put plainly: SPR; 1273 RUs of SF162 gp140 trimer amine-coupled on a CM5 chip; dual injection, 3 µM 4E10 Fv flowed 5 minutes before and during 10 nM Fab b12 or 447-52D; HBS-EP+, 25°C. In general terms: SPR reads the build-up and loss of mass on a sensor chip optically.

4E10 Fv showed a response bound at 3 µM 4E10 Fv of 90 RUs.
